# Residue numbers refer to the chain shown, from its start.
# T1: cyno PRLR (Biacore antigen) (cyno, UniProt A0A2K5WXK1 25-234)
# T1 construct: also called cyPRLR
# T1 sequence: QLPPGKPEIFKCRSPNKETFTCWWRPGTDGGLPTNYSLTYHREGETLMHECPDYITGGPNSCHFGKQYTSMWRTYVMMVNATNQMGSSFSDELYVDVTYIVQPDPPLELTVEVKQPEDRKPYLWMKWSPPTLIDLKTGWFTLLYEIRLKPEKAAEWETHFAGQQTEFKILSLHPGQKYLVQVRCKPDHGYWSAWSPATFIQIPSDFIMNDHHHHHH
# T2: human PRLR (Biacore antigen) (human, UniProt P16471 25-234, limits assumed)
# T2 construct: The construct injected over captured antibody is not described (a soluble form is likely); also called huPRLR
# T2 sequence: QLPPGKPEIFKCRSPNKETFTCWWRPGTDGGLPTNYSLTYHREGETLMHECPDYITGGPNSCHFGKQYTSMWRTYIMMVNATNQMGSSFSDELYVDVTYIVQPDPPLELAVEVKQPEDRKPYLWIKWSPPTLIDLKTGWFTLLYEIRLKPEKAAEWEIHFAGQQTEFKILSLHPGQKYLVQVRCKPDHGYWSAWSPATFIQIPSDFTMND
# T3: cyno PRLR ECD-his6 protein (cyno)
# T3 chain: T1 sequence
# T4: human PRLR ECD-Fc fusion protein (human, UniProt P16471 25-233)
# T4 construct: not shown: Fc region (captured by goat anti-human Fc)
# T4 sequence: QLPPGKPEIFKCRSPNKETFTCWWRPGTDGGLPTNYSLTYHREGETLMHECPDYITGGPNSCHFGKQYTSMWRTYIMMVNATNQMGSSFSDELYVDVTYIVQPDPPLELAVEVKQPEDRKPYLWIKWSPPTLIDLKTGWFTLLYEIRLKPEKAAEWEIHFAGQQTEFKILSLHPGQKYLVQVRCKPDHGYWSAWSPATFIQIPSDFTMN
# T5: human PRLR on cells (human, UniProt P16471 25-622)
# T5 sequence: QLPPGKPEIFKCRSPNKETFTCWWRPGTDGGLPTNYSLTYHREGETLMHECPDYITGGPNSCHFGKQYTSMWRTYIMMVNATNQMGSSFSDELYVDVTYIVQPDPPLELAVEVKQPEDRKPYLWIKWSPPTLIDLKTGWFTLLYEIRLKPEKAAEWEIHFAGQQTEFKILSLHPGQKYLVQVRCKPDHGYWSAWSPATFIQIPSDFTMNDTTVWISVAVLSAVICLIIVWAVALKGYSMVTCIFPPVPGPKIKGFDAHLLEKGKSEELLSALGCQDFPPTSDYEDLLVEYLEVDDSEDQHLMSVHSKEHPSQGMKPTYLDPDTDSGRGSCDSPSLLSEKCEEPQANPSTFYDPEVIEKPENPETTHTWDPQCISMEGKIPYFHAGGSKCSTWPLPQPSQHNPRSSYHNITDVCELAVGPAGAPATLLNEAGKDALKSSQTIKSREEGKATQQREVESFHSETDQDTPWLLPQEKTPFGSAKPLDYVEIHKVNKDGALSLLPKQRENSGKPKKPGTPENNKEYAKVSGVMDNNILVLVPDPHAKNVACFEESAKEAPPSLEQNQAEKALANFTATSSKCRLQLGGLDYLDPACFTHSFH
# T6: mouse PRLR on Baf3-mPRLR cells (mouse, UniProt Q08501 20-608)
# T6 sequence (looked up): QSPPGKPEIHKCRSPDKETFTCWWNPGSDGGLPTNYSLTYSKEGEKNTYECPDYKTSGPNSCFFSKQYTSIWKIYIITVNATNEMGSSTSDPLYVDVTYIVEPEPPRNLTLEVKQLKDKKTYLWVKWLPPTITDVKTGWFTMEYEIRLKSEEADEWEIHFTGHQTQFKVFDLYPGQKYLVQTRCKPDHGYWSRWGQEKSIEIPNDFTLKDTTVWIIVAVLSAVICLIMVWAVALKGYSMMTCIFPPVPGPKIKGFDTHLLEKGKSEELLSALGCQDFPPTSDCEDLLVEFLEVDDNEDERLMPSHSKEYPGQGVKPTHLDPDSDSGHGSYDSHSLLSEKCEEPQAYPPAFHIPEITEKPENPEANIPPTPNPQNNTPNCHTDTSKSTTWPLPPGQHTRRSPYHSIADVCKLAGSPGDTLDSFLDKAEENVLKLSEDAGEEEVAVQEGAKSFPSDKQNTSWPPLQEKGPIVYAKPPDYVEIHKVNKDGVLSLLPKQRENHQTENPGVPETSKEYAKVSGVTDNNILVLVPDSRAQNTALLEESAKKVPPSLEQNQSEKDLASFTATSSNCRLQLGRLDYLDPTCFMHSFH
# B1: Ab53 (antibody, human IgG1, kappa, V domains shown)
# VH: EVQLVQSGAEVKKPGSSVKVSCKASGYTFTSYWIHWVRQAPGQGLEWIGEIDPSDSYTNYNQKFKGRVTITVDKSTSTAYMELSSLRSEDTAVYYCARSFFTNWFAYWGQGTLVTVSS
# VL: DVVMTQTPLSLSVTPGQPASISCRSSQSLVHSNGNTYLHWYLQKPGQSPQLLIYKVSNRFSGVPDRFSGSGSGTDFTLKISRVEAEDVGVYFCSQSTHVPFTFGGGTKVEIKR
# notes: humanized from Ab7 (back mutations on Ab36); G1; also called Ab4 HC.1b.2 and Ab4 LC.1a
# B2: Ab44 (antibody, human IgG1, kappa, V domains shown)
# VH: EVQLVQSGAEVKKPGASVKVSCKASGYTFTDYNIHWVRQAPGQGLEWMGYIYPNNDGTGYNQKFKSRVTMTTDTSTSTAYMELRSLRSDDTAVYYCARGDGNYVGDMDYWGQGTTVTVSS
# VL: DIQMTQSPSSLSASVGDRVTITCRASENIYSYLAWYQQKPGKAPKLLIYNAKTLAEGVPSRFSGSGSGTDFTLTISSLQPEDFATYYCQHHYATPFTFGQGTKLEIKR
# notes: humanized from Ab8; G1; also called Ab3 HC.1 and Ab3 LC.1
# B3: Ab50 (antibody, human IgG1, kappa, V domains shown)
# VH: B2 VH with M48I, N61A, F64L, K65Q, S66G, T72V
# VL: B2 VL
# notes: humanized from Ab8; G1; also called Ab3 HC.1b and Ab3 LC.1
# B4: Ab51 (antibody, human IgG1, kappa, V domains shown)
# VH: B2 VH with M48I, N61A, F64L, K65Q, S66G, T72V
# VL: B2 VL with A43P, I48V
# notes: humanized from Ab8; G1; also called Ab3 HC.1b and Ab3 LC.1a
# B5: Ab52 (antibody, human IgG1, kappa, V domains shown)
# VH: B2 VH with M48I, N61A, F64L, K65Q, S66G, T72V
# VL: B2 VL with I48V
# notes: humanized from Ab8; G1; also called Ab3 HC.1b and Ab3 LC.1b
# B6: Ab32 (antibody, human IgG1, kappa)
# heavy: not shown
# light: DIVMTQTPLSLSVTPGQPASISCRSSQRLVHSNGNTYLHWYLQKPGQSPQLLIYKVSNRFSGVPDRFSGSGSGTDFTLKISRVEAEDVGVYYCSQSTHVPWTFGGGTKVEIKRTVAAPSVFIFPPSDEQLKSGTASVVCLLNNFYPREAKVQWKVDNALQSGNSQESVTEQDSKDSTYSLSSTLTLSKADYEKHKVYACEVTHQGLSSPVTKSFNRGEC
# B7: Ab33 (antibody, human IgG1, kappa, V domains shown)
# VH: EVQLVQSGAEVKKPGSSVKVSCKASGGTFTSFWMHWVRQAPGQGLEWIGVIDPSDTYTNYAQKFQGRVTITVDESTSTAYMELSSLRSEDTAVYYCARGDYSNWFTYWGQGTLVTVSS
# VL: B1 VL with S28R, F101W
# B8: Ab34 (antibody, human IgG1, kappa)
# heavy: not shown
# light: B6 light with I2V
# B9: Ab43 (antibody, human IgG1, kappa)
# heavy: not shown
# light: B6 light with I2V, R28S, W101F
# B10: Ab41 (antibody, human IgG1, kappa)
# heavy: not shown
# light: B6 light with R28S, W101F
# B11: Ab42 (antibody, human IgG1, kappa, V domains shown)
# VH: B1 VH with Y27G, N61A, K65Q
# VL: B1 VL
# B12: chAb9 (antibody, human IgG1, kappa, V domains shown)
# VH: EVQLQQSGPELVRPGASVKISCKASGYSFTDYNMHWVKQSHGKSLEWIGYIYPYNGGAGYNQKFKSKATMNVGISSSTAYMELRSLTSEDSAVYYCARGDGNYVGDMDYWGQGTSVTVSS
# VL: DIQMTQSPASLSASVGETVTITCRASENIYSYLAWYQQKQGKSPQLLVYNAKTLAEGVPSRFSGSGSGTQFSLKINSLQPEDFGSYYCQHHSGTPFTFGSGTKLEIKT
# B13: Ab22 (antibody, human IgG1, kappa, V domains shown)
# VH: EVQLVQSGAEVKKPGSSVKVSCKASGGTFTTYWMHWVRQAPGQGLEWIGEIDPSDSYSNYAQKFQGRVTITVDKSTSTAYMELSSLRSEDTAVYYCARNGGLGPAWFSYWGQGTLVTVSS
# VL: DIQMTQSPSSVSASVGDRVTITCKASQYVGTAVAWYQQKPGKAPKLLIYSASNRYTGVPSRFSGSGSGTDFTLTISSLQPEDFATYYCQQYSSYPWTFGGGTKVEIKR
# B14: Ab23 (antibody, human IgG1, kappa, V domains shown)
# VH: B13 VH
# VL: B13 VL with A43S, G64D, Y87F
# B15: Ab24 (antibody, human IgG1, kappa, V domains shown)
# VH: B13 VH
# VL: EIVMTQSPATLSVSPGERATLSCKASQYVGTAVAWYQQKPGQAPRLLIYSASNRYTGIPARFSGSGSGTEFTLTISSLQSEDFAVYYCQQYSSYPWTFGGGTKVEIKR
# B16: Ab25 (antibody, human IgG1, kappa, V domains shown)
# VH: B13 VH
# VL: B15 VL with A43S, I58V, G64D, Y87F
# Target: T1, cyno PRLR (Biacore antigen)
# Assay: SPR Biacore
# Summary of the method: (§1)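 Association rate, dissociation rate and dissociation constant were measured by surface plasmon resonance on a Biacore instrument. PRLR antigen was tested at 600 nM, 66.67 nM and 7.41 nM, a 3-point, 9-fold dilution series. Constants came from a 1:1 binding model fit (local Rmax, mass-transport term included) in Biacore T200 Evaluation Software.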
Binder,Kd,koff,kon
B1,7.8 nM,0.00089 s⁻¹,110000 M⁻¹ s⁻¹

# Target: T2, human PRLR (Biacore antigen)
# Assay: SPR Biacore
# Summary of the method: as §1
Binder,Kd,koff,kon
B1,8.5 nM,0.001 s⁻¹,120000 M⁻¹ s⁻¹

# Target: T3, cyno PRLR ECD-his6 protein
# Assay: ELISA on ECD
# Method: (§2) Plates were blocked for 1 hour with Superblock (Pierce) and washed (3×) with wash buffer (lx PBS (pH 7.4), 0.05% Tween 20). ECD proteins were bound to the appropriate antibody (1 hour) in binding buffer (wash buffer plus 10% Superblock), washed (3×, wash buffer), and then incubated with serial dilutions of antibodies (1 hour) in binding buffer. After washing (3×, wash buffer), secondary antibodies conjugated to HRP were bound (1 hour) in binding buffer, washed (3×, wash buffer), and incubated with TMB substrate (Pierce) to develop signal for 3-5 minutes, stopped with 2N H₂SO₄ and scanned at […]. Curves were fit with GraphPad 5 (Prizm) and EC50's were determined with curve fitting function of GraphPad 5.
row,Binder,EC50
1,B2,0.0945 nM

# Target: T4, human PRLR ECD-Fc fusion protein
# Assay: ELISA on ECD
# Method: as §2
row,Binder,EC50
1,B2,0.0435 nM
2,B3,0.109 nM
3,B4,0.287 nM
4,B5,0.0913 nM

# Target: T5, human PRLR on cells
# Assay: cell-based or functional assay
row,Binder,Baf3-hPRLR proliferation IC50
1,B6,> 30 µg/mL
2,B7,> 30 µg/mL
3,B1,1.03 µg/mL
4,B8,> 30 µg/mL
5,B9,6.75 µg/mL
6,B10,4.38 µg/mL
7,B11,4.76 µg/mL
8,B2,0.3 µg/mL
9,B3,0.51 µg/mL
10,B4,0.55 µg/mL
11,B5,0.51 µg/mL
12,B12,0.2 µg/mL
13,B13,> 30 µg/mL
14,B14,> 30 µg/mL
15,B15,> 30 µg/mL
16,B16,> 30 µg/mL

# Target: cyno PRLR on Baf3-cyPRLR cells (cyno)
# Assay: cell-based or functional assay
row,Binder,Baf3-cyPRLR proliferation IC50
1,B2,1.76 µg/mL
2,B3,41.6 µg/mL
3,B4,100 µg/mL
4,B5,305 µg/mL
5,B12,10.4 µg/mL

# Target: T6, mouse PRLR on Baf3-mPRLR cells
# Assay: cell-based or functional assay
row,Binder,Baf3-mPRLR proliferation IC50
1,B2,> 30 µg/mL
2,B3,> 30 µg/mL
3,B4,> 30 µg/mL
4,B5,> 30 µg/mL
